From doi:10.1101/2023.08.10.552651

Tests used:
[1] = biological target: SbtB ΔT-loop (T-loop Arg43-Ser52 truncation variant of SbtB) (Synechocystis sp. PCC 6803); experiment: cryo-EM structure
[2] = biological target: sodium-dependent bicarbonate transporter SbtA (Synechocystis sp. PCC 6803); experiment: cryo-EM structure

stoichiometry N [1]	stoichiometry N [2]	Substance
3		SbtB ΔT-loop (T-loop Arg43-Ser52 truncation variant of SbtB) (natural protein)
	3	sodium-dependent bicarbonate transporter SbtA (natural protein)
